Key:
Human Hsp70 (Stressgen) [1] = biological target: T1, Human Hsp70 (Stressgen) (human, UniProt P0DMV8 1-641); test: cell-based or functional assay
Bovine Hsc70 (Stressgen) = biological target: T2, Bovine Hsc70 (Stressgen) (bovine, UniProt P19120 2-650); test: GST-hCHIP fragments, in vitro binding assay, immunoblot
T2 construct: also called purified Hsc70

Human Hsp40 (Stressgen) = biological target: T3, Human Hsp40 (Stressgen) (human, UniProt P25685 1-340); test: GST pulldown on glutathione-Sepharose beads, immunoblot
T3 construct: also called co-chaperone Hsp40

Human Hsp70 (Stressgen) [2] = biological target: T1, Human Hsp70 (Stressgen); test: GST-hCHIP fragments, in vitro binding assay, immunoblot
[3] = biological target: T4, GST-Hsc70 (amino acid residues 1-540) (UniProt P11142 1-540); test: GST-Hsc70 deletion mutants on beads with 35S-labeled hCHIP, autoradiography
T4 construct: range 1-540; From E. Ungewickell; also called pGEXHsc70 (1-540); not shown: glutathione S-transferase (GST) of a pGEX vector

[4] = biological target: SV40 large T antigen (negative control protein, Clontech) (SV40, UniProt P03070 84-708); test: yeast two-hybrid
[5] = biological target: T5, Fragments of Hsc70 in frame with the GAL4 activation domain (five prey clones, human heart cDNA library in … (human, UniProt P11142 394-646, limits assumed)); test: yeast two-hybrid
T5 construct: domain: carboxyl terminus

[6] = biological target: T6, Fragments of Hsp70 in frame with the GAL4 activation domain (three prey clones, human heart cDNA library in … (human, UniProt P0DMV8 417-641, limits assumed)); test: yeast two-hybrid
T6 construct: domain: carboxyl terminus; Three clones treated as one molecule
T6 sequence (P0DMV8 417-641 limits assumed): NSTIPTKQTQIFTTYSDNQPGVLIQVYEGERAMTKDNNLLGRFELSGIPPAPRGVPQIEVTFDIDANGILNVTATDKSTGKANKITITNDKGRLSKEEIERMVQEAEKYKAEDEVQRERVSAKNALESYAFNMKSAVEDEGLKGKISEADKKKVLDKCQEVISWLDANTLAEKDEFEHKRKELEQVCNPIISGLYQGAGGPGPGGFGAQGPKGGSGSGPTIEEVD

T2 sequence (P19120 2-650 limits assumed): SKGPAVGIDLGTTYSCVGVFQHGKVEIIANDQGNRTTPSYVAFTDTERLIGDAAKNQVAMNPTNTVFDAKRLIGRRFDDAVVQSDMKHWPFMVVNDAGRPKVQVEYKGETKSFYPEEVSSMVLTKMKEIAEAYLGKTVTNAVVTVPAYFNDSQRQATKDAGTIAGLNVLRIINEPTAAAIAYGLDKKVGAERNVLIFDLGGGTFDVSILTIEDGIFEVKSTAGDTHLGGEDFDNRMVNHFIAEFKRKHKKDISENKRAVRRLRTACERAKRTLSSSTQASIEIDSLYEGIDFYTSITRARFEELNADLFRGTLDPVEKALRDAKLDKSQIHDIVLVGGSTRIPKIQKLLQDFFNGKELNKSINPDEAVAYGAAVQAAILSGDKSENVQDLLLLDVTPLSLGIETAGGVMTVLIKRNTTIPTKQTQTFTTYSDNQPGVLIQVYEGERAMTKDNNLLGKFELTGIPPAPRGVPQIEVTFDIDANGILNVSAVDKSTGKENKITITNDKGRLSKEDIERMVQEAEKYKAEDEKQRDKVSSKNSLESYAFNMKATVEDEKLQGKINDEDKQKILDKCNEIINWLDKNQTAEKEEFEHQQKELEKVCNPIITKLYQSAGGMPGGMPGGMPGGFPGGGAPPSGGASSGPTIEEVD
T1 sequence (P0DMV8 whole entry, the tested form may be a part): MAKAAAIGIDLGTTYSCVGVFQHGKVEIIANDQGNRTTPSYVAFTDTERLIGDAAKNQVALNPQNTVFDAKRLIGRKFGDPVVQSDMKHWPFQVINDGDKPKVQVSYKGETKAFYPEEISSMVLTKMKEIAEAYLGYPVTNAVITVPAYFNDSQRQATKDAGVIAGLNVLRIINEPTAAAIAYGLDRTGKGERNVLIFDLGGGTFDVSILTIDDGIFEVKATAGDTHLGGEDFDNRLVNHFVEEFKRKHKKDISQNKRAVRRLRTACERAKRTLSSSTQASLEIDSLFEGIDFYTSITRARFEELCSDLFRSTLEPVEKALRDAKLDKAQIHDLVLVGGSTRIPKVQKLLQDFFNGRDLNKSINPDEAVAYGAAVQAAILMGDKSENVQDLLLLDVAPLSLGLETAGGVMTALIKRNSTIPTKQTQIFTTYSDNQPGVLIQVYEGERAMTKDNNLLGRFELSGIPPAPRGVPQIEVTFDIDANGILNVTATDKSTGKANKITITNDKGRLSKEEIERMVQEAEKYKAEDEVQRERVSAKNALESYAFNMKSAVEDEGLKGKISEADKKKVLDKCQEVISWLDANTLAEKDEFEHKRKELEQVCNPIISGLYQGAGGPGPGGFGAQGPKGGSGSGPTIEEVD
Chain of SV40 large T antigen (negative control protein, Clontech) (P03070 84-708 limits assumed): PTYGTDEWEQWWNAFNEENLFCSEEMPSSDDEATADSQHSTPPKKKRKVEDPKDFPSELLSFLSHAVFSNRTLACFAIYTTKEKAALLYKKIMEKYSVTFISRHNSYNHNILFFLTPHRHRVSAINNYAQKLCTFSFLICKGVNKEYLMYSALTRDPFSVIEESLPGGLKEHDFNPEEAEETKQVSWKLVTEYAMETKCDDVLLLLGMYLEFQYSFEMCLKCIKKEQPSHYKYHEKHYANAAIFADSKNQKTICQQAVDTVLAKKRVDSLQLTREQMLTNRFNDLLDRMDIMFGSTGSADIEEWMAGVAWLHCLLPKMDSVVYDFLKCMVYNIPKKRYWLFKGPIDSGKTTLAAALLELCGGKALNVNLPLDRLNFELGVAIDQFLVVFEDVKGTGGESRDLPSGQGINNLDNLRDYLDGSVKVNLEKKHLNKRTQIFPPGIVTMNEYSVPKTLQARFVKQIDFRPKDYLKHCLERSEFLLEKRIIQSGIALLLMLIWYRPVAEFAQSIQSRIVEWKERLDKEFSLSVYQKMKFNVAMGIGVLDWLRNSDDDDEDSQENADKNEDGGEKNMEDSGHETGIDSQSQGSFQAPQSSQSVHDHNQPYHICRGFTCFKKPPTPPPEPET
T4 sequence (P11142 1-540): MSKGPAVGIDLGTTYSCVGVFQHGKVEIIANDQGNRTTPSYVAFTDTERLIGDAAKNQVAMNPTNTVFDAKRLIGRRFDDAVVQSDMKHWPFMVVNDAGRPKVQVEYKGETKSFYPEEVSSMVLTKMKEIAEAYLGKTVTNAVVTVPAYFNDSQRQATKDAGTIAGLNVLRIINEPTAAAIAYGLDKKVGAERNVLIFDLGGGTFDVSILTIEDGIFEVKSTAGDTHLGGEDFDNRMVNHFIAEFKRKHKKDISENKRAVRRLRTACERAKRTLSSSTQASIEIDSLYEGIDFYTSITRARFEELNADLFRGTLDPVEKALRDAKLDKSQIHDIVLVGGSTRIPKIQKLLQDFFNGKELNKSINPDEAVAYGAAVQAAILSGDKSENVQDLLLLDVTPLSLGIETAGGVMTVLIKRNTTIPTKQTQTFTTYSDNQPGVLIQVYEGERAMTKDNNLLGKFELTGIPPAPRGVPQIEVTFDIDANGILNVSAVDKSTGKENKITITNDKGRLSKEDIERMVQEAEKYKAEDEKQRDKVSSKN
T5 sequence (P11142 394-646 limits assumed): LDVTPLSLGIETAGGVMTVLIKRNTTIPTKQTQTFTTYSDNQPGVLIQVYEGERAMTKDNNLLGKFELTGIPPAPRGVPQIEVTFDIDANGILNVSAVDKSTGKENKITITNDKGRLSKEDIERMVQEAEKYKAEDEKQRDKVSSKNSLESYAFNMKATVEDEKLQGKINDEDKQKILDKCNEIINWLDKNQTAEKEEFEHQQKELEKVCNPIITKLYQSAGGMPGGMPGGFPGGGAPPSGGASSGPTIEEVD
T3 sequence (P25685 whole entry): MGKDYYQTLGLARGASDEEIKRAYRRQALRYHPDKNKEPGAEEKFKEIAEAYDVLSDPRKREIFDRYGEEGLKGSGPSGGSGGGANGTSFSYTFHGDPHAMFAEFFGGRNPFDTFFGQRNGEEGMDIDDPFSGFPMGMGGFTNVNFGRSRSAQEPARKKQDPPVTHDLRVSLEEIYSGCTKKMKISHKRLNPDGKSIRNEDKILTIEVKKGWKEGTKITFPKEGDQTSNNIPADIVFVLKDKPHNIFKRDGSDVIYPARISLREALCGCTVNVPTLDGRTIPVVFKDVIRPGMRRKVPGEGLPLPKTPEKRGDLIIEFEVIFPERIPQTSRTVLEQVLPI

B1: Recombinant hCHIP (His-tagged fusion from plasmid pET-hCHIP, expressed in E. coli BL21) (other, not shown: small tags and cut ends)
chain: MKGKEEKEGGARLGAGGGSPEKSPSAQELKEQGNRLFVGRKYPEAAACYGRVITRNPLVAVYYTNRALCYLKMQQHEQALADCRRALELDGQSVKAHFFLGQCQLEMESYDEAIANLQRAYSLAKEQRLNFGDDIPSALRIAKKKRWNSIEERRIHQESELHSYLSRLIAAERERELEECQRNHEGDEDDSHVRAQQACIEAKHDKYMADMDELFSQVDEKRKKRDIPDYLCGKISFELMREPCITPSGITYDRKDIEEHLQRVGHFDPVTRSPLTQEQLIPNLAMKEVIDAFISENGWVEDY
luciferase refolding: decrease of the folding activity of Hsp70 (Human Hsp70 (Stressgen) [1]): 65% | luciferase refolding: decrease of the folding activity of Hsp70/Hsp40 (Human Hsp70 (Stressgen) [1]): 64%

B2: GST-hCHIP fusion protein (amino acid residues 1-303) (other)
chain: MKGKEEKEGGARLGAGGGSPEKSPSAQELKEQGNRLFVGRKYPEAAACYGRVITRNPLVAVYYTNRALCYLKMQQHEQALADCRRALELDGQSVKAHFFLGQCQLEMESYDEAIANLQRAYSLAKEQRLNFGDDIPSALRIAKKKRWNSIEERRIHQESELHSYLSRLIAAERERELEECQRNHEGDEDDSHVRAQQACIEAKHDKYMADMDELFSQVDEKRKKRDIPDYLCGKISFELMREPCITPSGITYDRKDIEEHLQRVGHFDPVTRSPLTQEQLIPNLAMKEVIDAFISENGWVEDY
notes: also called GST-CHIP; not shown: glutathione S-transferase (GST) encoded by vector pGEX KG
binding result (Bovine Hsc70 (Stressgen)): binds | binding result (Human Hsp40 (Stressgen)): no binding

B3: GST-hCHIP fusion protein (amino acid residues 1-197) (other)
chain: MKGKEEKEGGARLGAGGGSPEKSPSAQELKEQGNRLFVGRKYPEAAACYGRVITRNPLVAVYYTNRALCYLKMQQHEQALADCRRALELDGQSVKAHFFLGQCQLEMESYDEAIANLQRAYSLAKEQRLNFGDDIPSALRIAKKKRWNSIEERRIHQESELHSYLSRLIAAERERELEECQRNHEGDEDDSHVRAQQ
notes: TPR domains plus the adjacent charged domain; also called GST construct 4; not shown: glutathione S-transferase (GST) encoded by vector pGEX KG
binding result (Human Hsp70 (Stressgen) [2]): binds | binding result (Bovine Hsc70 (Stressgen)): binds

B4: 35S-labeled, in vitro translated hCHIP (43-kD S-tagged fusion from vector pCITE-4a) (other)
chain: MKGKEEKEGGARLGAGGGSPEKSPSAQELKEQGNRLFVGRKYPEAAACYGRVITRNPLVAVYYTNRALCYLKMQQHEQALADCRRALELDGQSVKAHFFLGQCQLEMESYDEAIANLQRAYSLAKEQRLNFGDDIPSALRIAKKKRWNSIEERRIHQESELHSYLSRLIAAERERELEECQRNHEGDEDDSHVRAQQACIEAKHDKYMADMDELFSQVDEKRKKRDIPDYLCGKISFELMREPCITPSGITYDRKDIEEHLQRVGHFDPVTRSPLTQEQLIPNLAMKEVIDAFISENGWVEDY
modifications: 35S-methionine labeled
notes: Made in rabbit reticulocyte lysate; not shown: S-tag and vector-encoded residues of pCITE-4a
binding result [3]: no binding

B5: GST-hCHIP fusion protein (amino acid residues 1-142) (other)
chain: MKGKEEKEGGARLGAGGGSPEKSPSAQELKEQGNRLFVGRKYPEAAACYGRVITRNPLVAVYYTNRALCYLKMQQHEQALADCRRALELDGQSVKAHFFLGQCQLEMESYDEAIANLQRAYSLAKEQRLNFGDDIPSALRIA
notes: Contains the three TPR domains; also called GST construct 2; not shown: glutathione S-transferase (GST) encoded by vector pGEX KG
binding result (Human Hsp70 (Stressgen) [2]): no binding | binding result (Bovine Hsc70 (Stressgen)): no binding

B6: Full-length hCHIP fused to the GAL4 DNA-binding domain (bait, plasmid pAS2-1) (other)
chain: MKLLSSIEQACDICRLKKLKCSKEKPKCAKCLKNNWECRYSPKTKRSPLTRAHLTEVESRLERLEQLFLLIFPREDLDMILKMDSLQDIKALLTGLFVQDNVNKDAVTDRLASVETDMPLTLRQHRISATSSSEESSNKGQRQLTVSMKGKEEKEGGARLGAGGGSPEKSPSAQELKEQGNRLFVGRKYPEAAACYGRVITRNPLVAVYYTNRALCYLKMQQHEQALADCRRALELDGQSVKAHFFLGQCQLEMESYDEAIANLQRAYSLAKEQRLNFGDDIPSALRIAKKKRWNSIEERRIHQESELHSYLSRLIAAERERELEECQRNHEGDEDDSHVRAQQACIEAKHDKYMADMDELFSQVDEKRKKRDIPDYLCGKISFELMREPCITPSGITYDRKDIEEHLQRVGHFDPVTRSPLTQEQLIPNLAMKEVIDAFISENGWVEDY
notes: Expressed in yeast strain CG-1945
binding result [4]: no binding

B7: lamin C (negative control, yeast two-hybrid) (other, UniProt P02545-2 66-230, looked up)
chain: SEEVVSREVSGIKAAYEAELGDARKTLDSVAKERARLQLELSKVREEFKELKARNTKKEGDLIAAQARLKDLEALLNSKEAALSTALSEKRTLEGELHDLRGQVAKLEAALGEAKKQLQDEMLRRVDAENRLQTMKEELDFQKNIYSEELRETKRRHETRLVEID
binding result [5]: no binding | binding result [6]: no binding

From patent US7094873 (University of Texas, dated 2006)
